According to article PMC9961482:

Biological target: Encapsulin–SpyTag (Myxococcus xanthus | Streptococcus pyogenes) (UniProt Q1D6H4)
Experiment: reducing SDS-PAGE + SEC

Encapsulin–SpyTag (Myxococcus xanthus | Streptococcus pyogenes), sequence (Q1D6H4 1-287, tags left off): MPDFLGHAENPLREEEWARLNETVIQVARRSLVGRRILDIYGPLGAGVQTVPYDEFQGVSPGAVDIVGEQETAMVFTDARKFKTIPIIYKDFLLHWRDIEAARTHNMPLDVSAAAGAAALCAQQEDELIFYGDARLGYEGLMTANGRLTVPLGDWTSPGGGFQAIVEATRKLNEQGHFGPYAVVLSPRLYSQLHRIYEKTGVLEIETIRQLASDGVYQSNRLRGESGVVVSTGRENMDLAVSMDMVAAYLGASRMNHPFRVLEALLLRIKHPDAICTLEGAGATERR

mRBD–SpyCatcher (from UniProt P0DTC2 332-532)
per cent conjugation: 90 per cent
